Data reported in article PMC4351158 (Structure (London, England : 1993), 2015).
Numbering of substitutions follows the chain as printed. Names and notes keep the numbering of the source.

B1: R178A/H198P (protein, UniProt P0AEE3 1-355, looked up, variant R178A H198P)
Serine endoprotease DegS: MFVKLLRSVAIGLIVGAILLVAMPSLRSLNPLSTPQFDSTDETPASYNLAVRRAAPAVVNVYNRGLNTNSHNQLEIRTLGSGVIMDQRGYIITNKHVINDADQIIVALQDGRVFEALLVGSDSLTDLAVLKINATGGLPTIPINARRVPHIGDVVLAIGNPYNLGQTITQGIISATGAIGLNPTGRQNFLQTDASINPGNSGGALVNSLGELMGINTLSFDKSNDGETPEGIGFAIPFQLATKIMDKLIRDGRVIRGYIGIGGREIAPLHAQGGGIDQLQGIVVNEVSPDGPAANAGIQVNDLIISVDNKPAISALETMDQVAEIRPGSVIPVVVMRDDKQLTLQVTIQEYPATN
B2: F220A/H198P (protein, UniProt P0AEE3 1-355, looked up, variant F220A H198P)
Serine endoprotease DegS: B1 Serine endoprotease DegS with A178R, F220A
B3: R178A: DegS variant R178A (protein)
chain: RSLNPLSTPQFDSTDETPASYNLAVRRAAPAVVNVYNRGLNTNSHNQLEIRTLGSGVIMDQRGYIITNKHVINDADQIIVALQDGRVFEALLVGSDSLTDLAVLKINATGGLPTIPINARRVPHIGDVVLAIGNPYNLGQTITQGIISATGAIGLNPTGRQNFLQTDASINHGNSGGALVNSLGELMGINTLSFDKSNDGETPEGIGFAIPFQLATKIMDKLIRDGRVIRGYIGIGGREIAPLHAQGGGIDQLQGIVVNEVSPDGPAANAGIQVNDLIISVDNKPAISALETMDQVAEIRPGSVIPVVVMRDDKQLTLQVTIQEYPATN
modifications: left off: His6, N-terminal, state not stated
B4: F220A: DegS variant F220A (protein)
chain: B3 chain with A152R, F194A
modifications: left off: His6, N-terminal, state not stated
B5: T167V: DegS variant T167V (protein)
chain: B3 chain with T141V, A152R
modifications: left off: His6, N-terminal, state not stated
B6: L164A: DegS variant L164A (protein)
chain: B3 chain with L138A, A152R
modifications: left off: His6, N-terminal, state not stated
B7: P161A: DegS variant P161A (protein)
chain: B3 chain with P135A, A152R
modifications: left off: His6, N-terminal, state not stated
B8: Y162A: DegS variant Y162A (protein)
chain: B3 chain with Y136A, A152R
modifications: left off: His6, N-terminal, state not stated
B9: T169A: DegS variant T169A (protein)
chain: B3 chain with T143A, A152R
modifications: left off: His6, N-terminal, state not stated

The molecules below were run on periplasmic domain of RseA (assay: Cleavage of 35S-labeled RseA periplasmic domain by DegS variants). Details: H198P background; with YYF; % of H198P parent.
Assay type: biochemical, E. coli

Row | Molecule | YYF-stimulated cleavage activity relative to H198P parental enzyme
1 | B1 | 9–24%
2 | B2 | 9–24%

Same assay, conditions: WT background; compared to wild-type DegS

Row | Molecule | YYF-stimulated cleavage activity, in words
3 | B3 | almost no cleavage activity
4 | B4 | almost no cleavage activity

Same assay, conditions: WT background; with YYF; % of wild-type activity

Row | Molecule | YYF-stimulated cleavage activity relative to wild type
5 | B5 | less than 2%
6 | B6 | less than 2%
7 | B7 | less than 2%
8 | B8 | less than 2%
9 | B9 | less than 2%
